# In patent US20190276557A1 (APROGEN KIC, published 2019):
# B1: clone ID 1 (phage displayed scFv) (scFv)
# chain: EVQLVESGGGLVQPGGSLRLSCAASGYSYTDYNIYWVRQAPGKGLEWVGYIDPANGDTTYNQKFKGRATISVDKSKNTAYLQMNSLRAEDTAVYYCSRPIYYGAYWYFDVWGQGTLVTVSSDIQMTQSPSSLSASVGDRVTITCRASSPVTYMHWYQQKPGKAPKPWIYATSSLAPGVPSRFSGSGSGTDFTLTISSLQPEDFATYYCQQWSSNPLTFGQGTKVEIK
# Target: recombinant protein carbonic anhydrase 12 (R&D Systems) (Homo sapiens (Human), UniProt O43570 25-291, limits assumed)
# Sequence (O43570 25-291 limits assumed): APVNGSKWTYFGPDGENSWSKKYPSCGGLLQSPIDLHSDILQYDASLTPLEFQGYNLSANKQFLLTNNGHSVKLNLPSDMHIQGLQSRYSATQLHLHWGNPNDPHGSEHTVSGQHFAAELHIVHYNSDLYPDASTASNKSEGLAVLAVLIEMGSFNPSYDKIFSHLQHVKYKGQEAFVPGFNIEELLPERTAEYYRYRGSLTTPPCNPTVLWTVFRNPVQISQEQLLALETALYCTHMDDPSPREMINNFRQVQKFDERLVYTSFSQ
binder,measurement,value
B1,ELISA signal relative to the 4B4 chimeric antibody,1.5 times
